In this experiment the target is integrin α5 on preosteoblastic MC3T3-E1 cells (mouse (endogenous in MC3T3-E1)) (UniProt P11688).
UniProt P11688, sequence (P11688 45-1053): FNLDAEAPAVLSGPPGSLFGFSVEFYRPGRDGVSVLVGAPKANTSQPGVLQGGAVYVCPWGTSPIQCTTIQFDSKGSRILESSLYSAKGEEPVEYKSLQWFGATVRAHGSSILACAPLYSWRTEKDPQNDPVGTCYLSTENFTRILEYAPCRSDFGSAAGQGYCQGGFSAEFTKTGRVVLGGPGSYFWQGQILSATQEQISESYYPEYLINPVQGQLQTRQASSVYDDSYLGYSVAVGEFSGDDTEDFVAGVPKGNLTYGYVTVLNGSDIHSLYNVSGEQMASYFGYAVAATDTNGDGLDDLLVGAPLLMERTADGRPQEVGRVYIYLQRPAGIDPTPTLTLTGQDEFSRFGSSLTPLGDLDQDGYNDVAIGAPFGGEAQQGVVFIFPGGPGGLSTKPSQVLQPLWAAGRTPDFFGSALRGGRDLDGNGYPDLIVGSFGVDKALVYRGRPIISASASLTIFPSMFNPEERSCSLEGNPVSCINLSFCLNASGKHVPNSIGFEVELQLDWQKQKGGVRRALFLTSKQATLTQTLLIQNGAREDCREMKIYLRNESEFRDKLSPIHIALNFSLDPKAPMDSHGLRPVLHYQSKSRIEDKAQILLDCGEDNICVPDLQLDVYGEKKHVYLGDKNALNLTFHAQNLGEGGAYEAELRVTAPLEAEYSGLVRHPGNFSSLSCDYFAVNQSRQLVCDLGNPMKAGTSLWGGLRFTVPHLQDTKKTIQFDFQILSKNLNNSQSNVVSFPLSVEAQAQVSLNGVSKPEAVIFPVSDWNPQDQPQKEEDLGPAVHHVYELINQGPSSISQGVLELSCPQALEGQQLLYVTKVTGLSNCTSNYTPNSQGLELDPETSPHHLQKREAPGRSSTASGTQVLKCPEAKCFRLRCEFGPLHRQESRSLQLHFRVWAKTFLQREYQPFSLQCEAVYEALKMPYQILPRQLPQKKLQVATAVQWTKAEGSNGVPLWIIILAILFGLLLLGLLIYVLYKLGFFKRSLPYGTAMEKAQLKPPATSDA

With “connective tissue growth factor (CTGF), recombinant (from UniProt P29279 27-349) (ligand)”, the forward migration index (FMI) of MC3T3-E1 cells toward a gradient of 150 ng/ml CTGF with neutralizing integrin α5 antibody (5 μg/ml pretreatment, 15 μg/ml in the reservoir), 12 h was determined as 0.02; the forward migration index (FMI) of MC3T3-E1 cells toward a gradient of 150 ng/ml CTGF, μ-slide chemotaxis chamber, 12 h, CTGF group without antibody came to 0.5; the migration distance of MC3T3-E1 cells toward a gradient of 150 ng/ml CTGF with neutralizing integrin α5 antibody, 12 h is 129 μm; the migration distance of MC3T3-E1 cells toward a gradient of 150 ng/ml CTGF, 12 h, CTGF group without antibody came out at 162 μm. This substance gave a velocity of MC3T3-E1 cells migrating toward a gradient of 150 ng/ml CTGF with neutralizing integrin α5 antibody, 12 h of 0.25 μm/min and a velocity of MC3T3-E1 cells migrating toward a gradient of 150 ng/ml CTGF, 12 h, CTGF group without antibody of 0.32 μm/min.
